# Experimental data taken from paper PMC10268213 (2023).
# Numbering of substitutions follows the chain as printed.
# B1: LM18 nanobody (VHH)
# VHH: EVQLQESGGGLVQPGGSLRLSCAASGFTFSSYALGWYRQAPGKEREWVCAISGSGGSTYYADSVKGRFTCSRDNSKNTLYLQMNSLKPEDTAVYYCARVYQFYGARDYGYPYDFDYWGQGTQVTVSS
# B2: Nb-C4-225 nanobody (VHH)
# VHH: EVQLQESGGGLVQPGGSLRLSCAASGFTFSSYAMGWYRQAPGKEREWVCAISGSGGSTYYADSVKGRFTCSRDNSKNTLYLQMNSLKPEDTAVYYCARGSFYYTYGGSVGFDAFDYWGQGTQVTVSS
# B3: Nb-C4-255 nanobody (VHH)
# VHH: B2 VHH with G99Q, S100A, F101W, T104S, Y105P, G106Y, S108G, V109P, G110E, D112E
# B4: Nb-C2-136 nanobody (VHH)
# VHH: EVQLQESGGGLVQPGGSLRLSCAASGFTFSSYAMGWYRQAPGKEREWVCAISGSGGSTYYADSVKGRFTCSRDNSKNTLYLQMNSLKPEDTAVYYCARYGGPYDPTDSTYAFDYWGQGTQVTVSS
# B5: Nb-C4-240 nanobody (VHH)
# VHH: EVQLQESGGGLVQPGGSLRLSCAASGFTFSSYAMGWYRQAPGKEREWVCAISGSGGSTYYADSVKGRFTCSRDNSKNTLYLQMNSLKPEDTAVYYCARVVSYYDQTGFVYWQSYDYWGQGTQVTVSS
# Target: T1, SARS-CoV-2 receptor-binding domain (RBD) (SARS-CoV-2, UniProt P0DTC2)
# Experiment: SPR
row,Binder,koff [s⁻¹]
1,B1,0.0944
2,B2,0.0057
3,B3,0.295
4,B4,0.032
5,B5,0.969

# Target: T1, SARS-CoV-2 receptor-binding domain (RBD)
# Experiment: SPR
# Remark: another data set of the same source
row,Binder,Kd [nM]
1,B1,391
2,B2,143
3,B3,2950
4,B4,382
5,B5,1060
